Measured values reported in patent US6713265.

Molecular target: T1, rat Y4 receptor (rat), Q63447
T1 chain: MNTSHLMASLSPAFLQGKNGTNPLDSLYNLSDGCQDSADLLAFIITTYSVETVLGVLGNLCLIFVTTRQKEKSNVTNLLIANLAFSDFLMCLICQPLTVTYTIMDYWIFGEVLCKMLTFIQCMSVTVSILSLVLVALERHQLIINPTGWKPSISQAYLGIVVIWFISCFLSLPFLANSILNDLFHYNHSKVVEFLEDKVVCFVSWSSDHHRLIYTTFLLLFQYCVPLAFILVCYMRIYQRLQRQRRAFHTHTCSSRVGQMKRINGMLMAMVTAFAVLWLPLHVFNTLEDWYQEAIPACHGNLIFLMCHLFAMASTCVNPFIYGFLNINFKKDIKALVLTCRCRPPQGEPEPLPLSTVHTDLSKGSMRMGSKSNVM
Assay: 125I-PYY displacement, COS-7 membranes
Settings: remark: other sources report otherwise

PAEDLARYYSALRHYINLITRQRY (peptide, UniProt P01304 22-45, looked up) [porcine NPY13-36, P01304 22-45]
Ki: 140 nM
